Measurements reported in US20220119522A1 (DENALI THERAPEUTICS, published 2022).
Changes are numbered by the printed parent chain. No end group written: not given here.

T1: human TREM2 on the cell surface (human, UniProt Q9NZC2 19-230)
T1 sequence: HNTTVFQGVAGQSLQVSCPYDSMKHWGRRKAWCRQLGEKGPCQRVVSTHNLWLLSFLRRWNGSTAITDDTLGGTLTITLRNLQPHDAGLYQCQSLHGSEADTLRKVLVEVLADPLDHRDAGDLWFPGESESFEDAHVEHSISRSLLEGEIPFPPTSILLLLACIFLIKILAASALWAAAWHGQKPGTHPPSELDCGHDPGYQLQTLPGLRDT

T2: human TREM2 full length stalk region peptide (aa 129-172) (human, biotinylated (site not stated))
T2 construct: also called Human TREM2 peptide (aa 129-172); full-length TREM2 stalk peptide
T2 peptide: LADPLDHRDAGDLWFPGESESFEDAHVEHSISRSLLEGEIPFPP

T3: human TREM2 truncated stalk peptide (aa 149-163) (human, also: biotinylated (site not given here))
T3 construct: also called Human TREM2 peptide (aa 149-163); truncated stalk peptide containing the ADAM10/17 cleavage site
T3 peptide: SFEDAHVEHSISRSL

T4: mouse TREM2 full length stalk region peptide (aa 131-169) (mouse, UniProt Q99NH8 131-169, biotinylated (site not stated))
T4 peptide (looked up): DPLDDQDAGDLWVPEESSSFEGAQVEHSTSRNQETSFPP

T5: His-tagged human TREM2 ECD (human, UniProt Q9NZC2 19-172)
T5 construct: Biacore and HDX say only recombinant human TREM2 (ECD); also called recombinant human TREM2; hTREM2
T5 sequence: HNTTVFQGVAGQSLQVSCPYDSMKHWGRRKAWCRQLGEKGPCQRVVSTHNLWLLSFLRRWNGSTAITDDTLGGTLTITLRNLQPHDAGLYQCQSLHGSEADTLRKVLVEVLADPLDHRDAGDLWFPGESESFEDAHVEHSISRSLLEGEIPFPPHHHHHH

B1: CL0020205 (antibody, V domains shown)
VH: EVQLQQSGPVLVKPGASVKMSCKASGYTFTDYYVHWVKQSHGKSLEWIGLINPYTGTTSYNQRFRVKATLTVDKSSSTAYMEVNSLTSEDSAVYYCARSRVYYGSSLFAFWGQGTLVTVSA
VL: DIVMTQSPSSLSVSAGEKVTMSCKSSQSLLNSGNQKNYLAWYQQKPGQPPKLLIYGASTRESGVPDRFTGSGSGTDFTLTISSVQAEDLAVYYCQNDHSYPYTFGGGTKLEIK
notes: also called Clone CL0020205
B2: CL0020120 (antibody, V domains shown)
VH: EVQLQQSGPELVRTGASVKISCRASSYSFTDNYIHWVKQTHGRSLEWIGYISGYTGATSYNQKFKGKATFTVDTSSSTAYMQFNSLTSEDSAVYYCARSTMIAPYGMDYWGQGTSVTVSS
VL: DIVMTQSHKFMSTSVGDRVNITCKASQDVVTAVAWYQQKPGQSPKLLIYWASTRHTGVPDRFTGSGSGTDFTLTISNVQSEDLADYFCQQYSRYPLTFGAGTKLELK
notes: also called Clone CL0020120
B3: CL0020127 (antibody, V domains shown)
VH: EVQLQQSGPVLVKPGASVKMSCKASGYKFTDYYMNWVKQSHGKSLEWIGTINPYSGGISYNQKFKGKATLTVDKSSSTAYMELNSLTSEASAVYYCTRRNWDGRYAMDYWGQGTSVTVSS
VL: B2 VL with N20S, V30S, D85E, R93S, L96F, A100G, L106I
notes: also called Clone CL0020127
B4: CL0020206 (antibody, V domains shown)
VH: B3 VH with K28T, T50I, T69I
VL: B2 VL with N20S, C23Y, V30G, T31S, A51T, R93S, L96F, A100G, L106I
notes: also called Clone CL0020206
B5: CL0020188-1 (antibody, V domains shown)
VH: EVQLVESGGGLVQPGGSLRLSCAASGFTFTDFYMSWVRQAPGKGLEWVSVIRNKANGYTAGYNPSVKGRFTISRDNSKNTLYLQMNSLRAEDTAVYYCARLTYGFDYWGQGTLVTVSS
VL: DIVMTQTPLSLPVTPGEPASISCQSSKSLLHSNGKTYLNWYLQKPGQSPQLLIYWMSTRASGVPDRFSGSGSGTDFTLKISRVEAEDVGVYYCQQFLEYPFTFGQGTKVEIK
notes: also called Clone CL0020188-1
B6: CL0020188-6 (antibody, V domains shown)
VH: B5 VH with A24G, L45P, V48L, G57A
VL: B5 VL
notes: Humanized variant of CL0020188 (hVH NA/3 m, hVL NG/graft); also called Clone CL0020188-6
B7: CL0020188-2 (antibody, V domains shown)
VH: B5 VH with A24G, L45P, V48L
VL: B5 VL
notes: Humanized variant of CL0020188 (hVH NG/3 m, hVL NG/graft); also called Clone CL0020188-2
B8: CL0020188-8 (antibody, V domains shown)
VH: B5 VH with A24G, L45P, V48L, G57A
VL: B5 VL with N33T
notes: Humanized variant of CL0020188 (hVH NA/3 m, hVL TG/graft); also called Clone CL0020188-8
B9: CL0020188-5 (antibody, V domains shown)
VH: B5 VH with G57A
VL: B5 VL
notes: Humanized variant of CL0020188 (hVH NA/graft, hVL NG/graft); also called Clone CL0020188-5
B10: CL0020188-3 (antibody, V domains shown)
VH: B5 VH
VL: B5 VL with N33T
notes: Humanized variant of CL0020188 (hVH NG/graft, hVL TG/graft); also called Clone CL0020188-3
B11: CL0020113 (antibody, V domains shown)
VH: QIQLVQSGPELKKPGESLKISCKASGYTFTDYAMQWVKQAPGKGLQYMGWINTQTGKPTYADDFKERFVFSLETSASTAYLKINNLKNDDMATYLCARSYGGEYNWIAYWGQGTLVTVSS
VL: DIVMTQTPSSQAVSAGEKVTMNCKSSQSLLYNENKKNYLAWYQQKPGQSPKLLIYWASTRESGVPDRFIGSGSGTDFTLTISSVQAEDLAVYYCQQSYNFPPTFGGGTKLELK
notes: also called Clone CL0020113
B12: CL0020210 (antibody, V domains shown)
VH: QIQLVQSGPELRKPGETVKISCKASGYTFTTYGMSWVKQAPGKGLKWMGWINTYSGLPRHSDDFKGRFAFSLETSASTAYLQINNLKNEDTATYFCAREVYYGSRKTAWFAYWGQGTLVTVSA
VL: DLVMSQSPSSLAVSVGERITMTCKSSQSLLYSNDQKNYLAWYQQIPGQSPKLLLYWASTRESGVPDRFTGSGSGTDFTLTISSVKAEDLAVYFCQQYYNYPPTFGAGTKLELK
notes: also called Clone CL0020210; CL020210
B13: CL0020195 (antibody, V domains shown)
VH: EVQLVESGGGLVQPGRSMMLSCSASGFTFSNYHMAWVRQAPTTGLEWVASITTGSGNTYYRHSVKGRFTISRDNAKSTLYLQMDSLRSEDTASYYCARRWYGGYEGYYFDYWGQGVMVTVSS
VL: DIQMTQSPSLLSASVGDRVTLSCKAGQNVNNYLAWYQQKLGEAPKLLIYNANILQTGFPSRFSGTGSGTDFTLTISSLQPEDVATYFCQQYNSWTTFGGGTKLELK
notes: also called Clone CL0020195

Key:
[1] = molecular target: T1, human TREM2 on the cell surface; experiment: cell-based or functional assay
[2] = molecular target: T1, human TREM2 on the cell surface; experiment: cell binding, human macrophages, dose titration
[3] = molecular target: T2, human TREM2 full length stalk region …; experiment: ELISA on biotinylated peptide captured by streptavidin; A450 normalised to isotype control
Protocol: (§1) TREM2 antibodies were evaluated for binding to human and mouse TREM2 stalk region peptides. […] Antibody binding to TREM2 stalk peptides was detected using standard sandwich ELISA. Briefly, a 96-well half-area ELISA plate was coated with streptavidin overnight at 4° C. The following day, biotinylated TREM2 stalk peptides diluted in 1% BSA/PBS were added to the plate and incubated for 1 hour. Antibodies diluted in 1% BSA/PBS were then added and incubated for 1 hour. Antibodies bound to peptide were detected with anti-human kappa-HRP secondary antibody (Bethyl Laboratories, Inc.) diluted in 1% BSA/PBS. Plates were assayed by reaction with a detection reagent (One-step TMB Ultra, Thermo) and measurement of absorbance at 450 nm (A450) by standard spectrophotometry instrumentation (BioTek®). Data are shown as normalized values (fold over background where background=isotype control).

[4] = molecular target: T3, human TREM2 truncated stalk peptide (aa …); experiment: as above
Protocol: as §1

[5] = molecular target: T4, mouse TREM2 full length stalk region …; experiment: as above
Protocol: as §1

[6] = molecular target: T5, His-tagged human TREM2 ECD; experiment: SPR (Biacore), antibody captured via anti-human Fab, recombinant TREM2 ECD injected, 1:1 fit
Protocol: (§2) Surface plasmon resonance (Biacore™ 8K instrument) was used to measure anti-TREM2 antibody affinities for human and cynomolgus TREM2 ECD. Anti-TREM2 antibodies were captured using Human Fab Capture Kit (GE Healthcare Life Sciences, Catalog No. 28958325) on a Biacore Series S CM5 sensor chip (GE Healthcare Life Sciences, Catalog No. 29149604). Serial 3-fold dilutions of recombinant human or cynomolgus TREM2 were injected at a flow rate of 30 μL/min. Antibody binding was monitored for 300 seconds, followed by monitoring of antibody dissociation for 600+seconds in HBS-EP+ running buffer (GE Healthcare Life Sciences, Catalog No. BR100669). The binding response was corrected by subtracting the RU value from a blank flow cell. A 1:1 Languir model of simultaneous fitting of kₒₙ and koff was used for kinetics analysis.

[7] = molecular target: T5, His-tagged human TREM2 ECD; experiment: SPR (Biacore)
Protocol: as §2
(§3) Sequence optimization was conducted by searching within CDR sequences for residues that are susceptible to chemical modification (e.g., asparagine deamidation motifs (NG), aspartic acid isomerization motifs (DS), and potential oxidation residues (tryptophan (W) and methionine (M)) and making amino acid substitutions with conservative and germline residues to remove such sequence liabilities. Humanized and sequence-optimized variants of anti-TREM2 antibodies were then analyzed for binding kinetics using Biacore and dose-titrated cell binding to HEK293-H6 cells (see, Example 1 for representative protocols).

[8] = molecular target: T1, human TREM2 on the cell surface; experiment: flow cytometry, dose-titrated binding to HEK293-H6 cells
Protocol: After incubation, the cells were centrifuged and washed in FACS buffer (PBS+0.5% BSA) twice. Mixed cells were resuspended in FACS buffer with human Trustain FcX solution (Biolegend, Catalog No. 422302) at a density of 10⁶/mL per cell line. The mixed cell lines were seeded at 200,000 cells per well in a 96-well round-bottom plate and incubated for 20 minutes at room temperature. After incubation, the cells were centrifuged and incubated with anti-TREM2 antibodies of about 0-200 nM dose titration for 45 minutes on ice. After incubation, the cells were centrifuged and washed with FACS buffer three times. […] After incubation, the cells were washed with FACS buffer three times, resuspended in 100 μL of FACS buffer, and analyzed by flow cytometry (BD FACSCanto II, San Jose, Calif.), for which 30,000 events were obtained for each sample. Mean fluorescence intensity per cells were calculated by FlowJo software and used for generating dose response binding curve.
as §3

Binder | NFAT EC50 (nM), plate coated mAb [1] [nM] | Survival EC50 (nM), plate coated mAb, human macrophages [1] [nM] | pSyk activation (human macrophages) EC50 (nM) [1] [nM] | EC50 [2] [nM] | fold over background (A450) [3] [fold] | fold over background (A450) [4] [fold] | fold over background (A450) [5] [fold] | Kd [6] [nM] | Kd [7] [nM] | EC50 [8] [nM]
B1 | 67.7 | 5.7 | 14.3 | 2.1 | 1.3 | 1.2 | 1.1 | 1.52 | – | –
B2 | 195 | 17.8 | 24.2 | 1.6 | 1.2 | 1.2 | 1.2 | 4.04 | – | –
B3 | 20.5 | – | 11.9 | 11 | 1.4 | 1.2 | 1.3 | 3.37 | – | –
B4 | 69.9 | – | 20.7 | 4.8 | 1.8 | 1.6 | 1.6 | 1.82 | – | –
B5 | – | – | – | – | – | – | – | – | 2.3 | 0.42
B6 | – | – | – | – | – | – | – | – | 4 | 0.31
B7 | – | – | – | – | – | – | – | – | 3.4 | 0.26
B8 | – | – | – | – | – | – | – | – | 7.3 | 0.51
B9 | – | – | – | – | – | – | – | – | 5.1 | 0.45
B10 | – | – | – | – | – | – | – | – | 6.8 | 0.64
B11 | 185 | 24.8 | 24.8 | 2.1 | 47 | 1.4 | – | 7.81 | – | –
B12 | 11.7 | – | 37.4 | 0.9 | 50 | 1.5 | 25 | 6.27 | – | –
B13 | 98.3 | – | 12 | 1.3 | 1.3 | 1.1 | 1.1 | 25.7 | – | –
